Paper PMC11624268, “Leishmania protein KMP-11 modulates cholesterol transport and membrane fluidity to facilitate host cell invasion” (EMBO Reports, 2024)

B1: purified recombinant KMP-11 (kinetoplastid membrane protein-11), wild type (natural protein)
chain: MATTYEEFSAKLDRLDQEFNRKMQEQNAKFFADKPDESTLSPEMREHYEKFERMIKEHTEKFNKKMHEHSEHFKQKFAELLEQQKAAQYPSK
notes: amino-terminal stretch (1-19) of kinetoplastid membrane protein-11 (KMP-11), Leishmania donovani (so in the source); rest of kinetoplastid membrane protein-11 (KMP-11), Leishmania donovani, after the printed stretch 1-19; Purification by the procedure of Sharma et al, 2013; also called r-KMP-11; WT KMP-11; source: pET28a, bacterial culture, purified (Ni-NTA, endotoxin removal column, gel …)

Assays:
[1] = target: the molecule itself; assay: negative stain TEM; purified KMP-11 (0.1 mg/ml) in the presence of DPPC ERG (30%) SUVs; 50 mM tris pH 8.0, 150 mM NaCl; 1% uranyl acetate
[2] = target: the molecule itself; assay: single molecule photobleaching step analysis (TIRF microscopy); 50 nM Alexa-488 maleimide labeled KMP-11 (S38C) on PEG cushioned supported bilayer of DPPC-ERG (30%); 30 min incubation; manual step counts from 235 spots
[3] = target: B1; assay: fluorescence correlation spectroscopy (FCS); 50 nM Alexa488Maleimide labeled r-KMP-11 in the presence of unlabeled r-KMP-11 at different total concentrations; diffusion time read out; in the absence and presence of different salt concentrations (salt facilitates self-association); details: both partners purified

Binder	stoichiometry N [1]	stoichiometry N [2]	binding result [3]
B1	4		
Alexa488-maleimide labeled r-KMP-11 S38C (kinetoplastid membrane protein-11, single cysteine mutant) (natural protein, Alexa-488 maleimide on the single cysteine (S38C); labeling percentage 86%, amino-terminal stretch (1-19) of kinetoplastid membrane protein-11 (KMP-11), Leishmania donovani (so in the source); rest of kinetoplastid membrane protein-11 (KMP-11), Leishmania donovani, after the printed stretch 1-19; The labeled protein was passed through Ni NTA after labeling, so the tag was probably still there; Purification by the procedure of Sharma et al, 2013; also called …) MATTYEEFSAKLDRLDQEFNRKMQEQNAKFFADKPDECTLSPEMREHYEKFERMIKEHTEKFNKKMHEHSEHFKQKFAELLEQQKAAQYPSK		4	binds
